{"source": "patent US20090149339A1", "key": {"[1]": {"molecular_target": "GST-NeDLG PDZ domain fusion protein (presynaptic protein sao102, neuroendocrine-dlg; PDZ domains 1-2 of 3) [GST: P08515]", "sequence (P08515 1-218, tags or fused parts left off)": "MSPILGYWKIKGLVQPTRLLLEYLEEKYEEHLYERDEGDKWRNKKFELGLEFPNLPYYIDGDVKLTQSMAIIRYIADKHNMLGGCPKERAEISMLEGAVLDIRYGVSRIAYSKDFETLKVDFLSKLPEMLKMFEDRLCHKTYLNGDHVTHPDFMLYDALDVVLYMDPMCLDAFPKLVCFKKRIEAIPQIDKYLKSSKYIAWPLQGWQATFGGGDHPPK", "assay": "G assay, peptide titrated on immobilized GST-PDZ, saturation fit (apparent affinity)"}, "[2]": {"molecular_target": "GST-PSD95 PDZ domain fusion protein (human post-synaptic density protein 95 AA387-724; PDZ domains 1-3 of 3) (human) [GST: P08515]", "sequence (P08515 1-218, tags or fused parts left off)": "as above", "assay": "G assay, peptide titrated on immobilized GST-PDZ, saturation fit (apparent affinity)"}, "[3]": {"molecular_target": "GST polypeptide alone (not a fusion protein) [GST: P08515]", "sequence (P08515 whole entry, the tested form may be a part)": "as the sequence (P08515 1-218, tags or fused parts left off) above", "assay": "G assay, immobilized GST alone (background control)"}, "[4]": {"molecular_target": "GST-DLG1 PDZ domain fusion protein (human homolog of Drosophila discs large protein AA275-477; PDZ domains 1-2 of 3) (human) [GST: P08515]", "sequence (P08515 1-218, tags or fused parts left off)": "as above", "assay": "G assay, peptide titrated on immobilized GST-PDZ, saturation fit (apparent affinity)"}}, "note": "Ends that are not written are not given here. * marks the point of attachment. Biotin = O=C1N[C@H]2[C@H](CS[C@H]2CCCCC(=O)*)N1"}
{"binder": "ISGTPTSTMVHGMTSSSSVV (modifications not checked)", "note": "[CLASP-2 C-terminal PL peptide AA2L (C-terminal 20 amino acids), biotinylated]", "values": [{"measurement": "Kd", "setting": "[1]", "result": 7.5, "unit": "µM"}, {"measurement": "Kd", "setting": "[2]", "result": 45, "unit": "µM"}, {"measurement": "OD (binding to GST alone)", "setting": "[3]", "result": "< 0.2", "unit": "OD units"}]}
{"binder": "Biotin-KDITSDSENSNFRNEIQSLV", "note": "[CD95 (Apo-1/Fas) C-terminal PL peptide AA13L, biotinylated]", "values": [{"measurement": "Kd", "setting": "[4]", "result": 54, "unit": "µM"}]}
